Test results taken from the PETadex activity labels (doi:10.1021/bi00096a018).
Where a chain is given by its changes, count along the chain named.

B1: unnamed (protein)
chain: MRPPWYPLHTPSLAFPLLFLLLSLLGGGARAEGREDPQLLVRVRGGQLRGIRLKAPGGPVSAFLGIPFAEPPVGSRRFMPPEPKRPWSGVLDATTFQNVCYQNVDTLYPGFEGTEMWNPNRELSEDCLYLNVWTPYPRPASPTPVLIWIYGGGFYSGAASLDVYDGRFLAQVEGAVLVSMNYRVGTFGFLALPGSREAPGNVGLLDQRLALQWVQENIAAFGGDPMSVTLFGESAGAASVGMHILSLPSRSLFHRAVLQSGTPNGPWATVSAGEARRRATLLARLVGCPPGGAGGNDTELIACLRTRPAQDLVDHEWHVLPQESIFRFSFVPVVDGDFLSDTPEALINTGDFQDLQVLVGVVKDEGSYFLVYGVPGFSKDNESLISRAQFLAGVRIGVPQASDLAAEAVVLHYTDWLHPEDPTHLRDAMSAVVGDHNVVCPVAQLAGRLAAQGARVYAYIFEHRASTLTWPLWMGVPHGYEIEFIFGLPLDPSLNYTTEERIFAQRLMKYWTNFARTGDPNDPRDSKSPQWPPYTTAAQQYVSLNLKPLEVRRGLRAQTCAFWNRFLPKLLSATDTLDEAERQWKAEFHRWSSYMVHWKNQFDHYSKQERCSDL
B2: unnamed (protein)
chain: B1 chain with W317R
B3: unnamed (protein)
chain: B1 chain with Y155Q
B4: unnamed (protein)
chain: B1 chain with N103Y, Y155Q

substrate: Acetylcholine; settings: pH 7; 22 °C

| Protein | Km [µM] | kcat [s⁻¹] |
| --- | --- | --- |
| B1 | 110 | 2170 |
| B2 | 670 | 3170 |
| B3 | 95 | 1570 |
| B4 | 120 | 1830 |
